Results from US20220177596A1 (Bristol-Myers Squibb, published 2022).
Several values for one entry are separate records, joined by “and”; a condition that tells them apart may be missing. Equal entries are not always repeated.

Assays:
[1] = target: T1, human-CD40 monomer (human, UniProt P25942 21-193, limits assumed); experiment: SPR 2 pt screen, Ab on protein A
T1 construct: also called hCD40-monomer; human-CD40-monomer protein
Procedure: (§1) The VH sequences were formatted in the context of an IgG1.3f isotype. The Vκ sequences were formatted as a full light chain with a common CL sequence. All 55 combinations of these humanized HC and LC constructs, as well as the chimeric Y1238 molecule were expressed as 3 ml supernatants for binding analysis by SPR. Each of the 56 supernatants, as well as a purified Y1238-chimeric IgG1 antibody, was captured on a protein A sensor chip and tested for binding to two concentrations (i.e., 200 nM and 1000 nM) of hCD40-monomer using BIAcore™ SPR in a screening assay. All antibodies, except for those containing hz-HC3, captured at high levels (>300 RU) using a 100-fold dilution of the expression supernatant, indicating a high antibody titer in the supernatant except for the hz-HC3 samples. The kinetic data for the two concentrations of hCD40-monomer were fit to a 1:1 Langmuir model, to yield estimates of the kinetic and affinity values for these interactions, and for comparison of the different molecules. […] Also, for a given heavy chain, the antibodies with light chains hz-LC1 or hz-LC2 had higher CD40 affinity than those with hz-LC3, hz-LC4 or hz-LC5.

[2] = target: T1, human-CD40 monomer; experiment: SPR full kinetics, Ab on protein A
Procedure: as §1, with “Each of the 56 supernatants, as well as a purified Y1238-chimeric IgG1 antibody, was captured on a protein A sensor chip and tested for binding to two concentrations (i.e., 200 nM and 1000 nM) of hCD40-monomer using BIAcore™ SPR in a screening assay.” left out

[3] = target: T2, hCD64-His (human, UniProt P12314 16-288, limits assumed); experiment: SPR
T2 construct: Generated in house; captured on anti-His Fab; also called hFcgRI; FcgRI
T2 sequence (P12314 other isoform, or with tags, fused parts or gaps limits assumed): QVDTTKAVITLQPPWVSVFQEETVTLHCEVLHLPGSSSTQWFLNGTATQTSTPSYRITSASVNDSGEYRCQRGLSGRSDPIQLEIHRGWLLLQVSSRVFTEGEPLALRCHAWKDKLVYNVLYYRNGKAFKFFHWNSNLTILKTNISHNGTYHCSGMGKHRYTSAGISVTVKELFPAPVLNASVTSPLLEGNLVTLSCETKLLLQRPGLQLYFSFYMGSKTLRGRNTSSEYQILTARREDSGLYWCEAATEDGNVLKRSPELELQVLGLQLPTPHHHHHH
Procedure: (§2) FCGR BINDING SPR: FcgR binding can be measured in vitro using purified FcgRs using methods such as BIAcore™ surface plasmon resonance (SPR). One method tests the binding of purified antibodies to His-tagged FcgR proteins (FcgR-His) which are captured on the immobilized Fab fragment of an anti-His antibody. These experiments are performed on either a BIAcore™ T100 or BIAcore™ T200 instrument (GE Healthcare Life Sciences, Marlborough, Mass.) at 25° C. The Fab fragment from a murine anti-6×His antibody (generated in house) is immobilized on a CMS sensor chip using standard ethyl(dimethylaminopropyl) carbodiimide (EDC)/N-hydroxysuccinimide (NHS) chemistry with ethanolamine blocking, to a density of ˜3000 RU in a running buffer of 10 mM HEPES pH 7.4, 150 mM NaCl, 3 mM EDTA, 0.05% surfactant p20 (HBS-EP+). All remaining studies are performed using a running buffer of 10 mM NaPO4, 130 mM NaCl, 0.05% p20 (PBS-T) pH 7.1. Various FcγR proteins containing a C-terminal 6× poly-histidine tag (generated in house) are captured on this surface (typically using FcgR-his protein concentration of ˜7 μg/ml) using a contact time of 30 sec at 10 μl/min. Various concentrations of purified antibody are tested for binding, for example using an association time of 120 seconds at 30 μl/min, and a dissociation time of 120 seconds at 30 μl/min. FcgR proteins tested in these studies include the “high affinity” FcgR CD64 (hFcgRI), as well as the “low affinity” FcgRs CD32a-H131 (FcgRIIa-H131), CD32a-R131 (FcgRIIa-R131), CD32b (FcgRIIb), CD16a-V158 (FcgRIIIa-V158), and CD16b-NA2 (FcgRIIIb-NA2).

[4] = target: T1, human-CD40 monomer; experiment: SPR, Ab captured on protein A, CD40 monomer analyte
Procedure: These chimeric antibodies were tested for CD40 and FcgR binding by SPR, as well as for iDC activation.

[5] = target: human CD40 on primary human cells (tonsillar B cells, immature dendritic cells) (human, UniProt P25942 21-277); experiment: cell-based or functional assay
Sequence of human CD40 on primary human cells (tonsillar B cells, immature dendritic cells) (P25942 21-277 limits assumed): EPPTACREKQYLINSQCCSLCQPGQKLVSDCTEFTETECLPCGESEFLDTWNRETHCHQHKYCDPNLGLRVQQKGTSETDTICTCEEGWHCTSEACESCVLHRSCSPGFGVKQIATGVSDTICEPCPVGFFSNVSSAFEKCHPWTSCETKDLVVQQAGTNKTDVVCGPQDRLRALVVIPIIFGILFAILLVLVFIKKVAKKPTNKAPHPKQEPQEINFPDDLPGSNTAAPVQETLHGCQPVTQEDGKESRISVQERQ

[6] = target: T1, human-CD40 monomer; experiment: SPR, Ab captured on protein A, CD40 monomer analyte; remark: listed apart in the source
Source text: Based on the supernatant screening SPR data and bias towards constructs with fewer framework back-mutations, a subset of humanized Y1238 antibodies were selected for expression, purification, and further characterization. Two of these antibodies (i.e., Y1238-hz1 and Y1238-hz2) were formatted with P238K and N297A isotypes (i.e., SEQ ID NOS: 39, 40, 42, and 43 for heavy chains; see TABLE 15 for light chains) and tested for CD40 and FcgR binding by SPR. […] The Fc domain is underlined.

[7] = target: T2, hCD64-His; experiment: SPR (BIAcore): 7 µg/ml hCD64-His captured on an anti-His Fab surface, 1 µM antibody as analyte
Procedure: as §2

[8] = target: T1, human-CD40 monomer; experiment: SPR, Ab captured on protein A, CD40 monomer analyte; remark: listed apart in the source
[9] = target: T3, hCD32b-His (human, UniProt P31994 43-217); experiment: SPR
T3 construct: Generated in house; captured on anti-His Fab; also called FcgRIIb
T3 sequence: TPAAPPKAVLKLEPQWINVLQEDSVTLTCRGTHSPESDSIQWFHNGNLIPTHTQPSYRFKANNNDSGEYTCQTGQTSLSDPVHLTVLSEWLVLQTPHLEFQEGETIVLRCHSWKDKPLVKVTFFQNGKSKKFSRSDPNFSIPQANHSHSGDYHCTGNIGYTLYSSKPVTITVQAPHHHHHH
Procedure: as §2

T1 sequence (P25942 21-193 limits assumed): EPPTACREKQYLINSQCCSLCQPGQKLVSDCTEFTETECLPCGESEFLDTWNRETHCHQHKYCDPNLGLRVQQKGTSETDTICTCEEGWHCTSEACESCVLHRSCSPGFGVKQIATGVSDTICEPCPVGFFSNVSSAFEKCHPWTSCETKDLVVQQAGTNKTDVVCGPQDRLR

B1: humanized Y1238 hz1 (hz-HC1 / hz-LC1), IgG1.3f (antibody, V domains shown)
VH: QVQLVQSGAEVKKPGASVKVSCKASGYAFTNYLIEWVRQAPGQGLEWMGVINPGSGGTNYNEKFKGRVTMTRDTSISTAYMELSRLRSDDTAVYYCARSQLGRRFDYWGQGTLVTVSS
VL: DIQMTQSPSSLSASVGDRVTITCKASQDVRTGVAWYQQKPGKAPKLLIYSASYRNTGVPSRFSGSGSGTDFTFTISSLQPEDIATYYCQQHYSPPYTFGGGTKVEIK
notes: IgG1.3f heavy constant, common CL; expression supernatant; also called Sup 1
Kd [1]: 4.2 nM
koff [1]: 0.0002 s⁻¹
kon [1]: 48000 M⁻¹ s⁻¹
Kd [2]: 3 nM
koff [2]: 0.00019 s⁻¹
kon [2]: 65000 M⁻¹ s⁻¹

B2: Y1238-CTza (antibody, human IgG1, kappa)
heavy: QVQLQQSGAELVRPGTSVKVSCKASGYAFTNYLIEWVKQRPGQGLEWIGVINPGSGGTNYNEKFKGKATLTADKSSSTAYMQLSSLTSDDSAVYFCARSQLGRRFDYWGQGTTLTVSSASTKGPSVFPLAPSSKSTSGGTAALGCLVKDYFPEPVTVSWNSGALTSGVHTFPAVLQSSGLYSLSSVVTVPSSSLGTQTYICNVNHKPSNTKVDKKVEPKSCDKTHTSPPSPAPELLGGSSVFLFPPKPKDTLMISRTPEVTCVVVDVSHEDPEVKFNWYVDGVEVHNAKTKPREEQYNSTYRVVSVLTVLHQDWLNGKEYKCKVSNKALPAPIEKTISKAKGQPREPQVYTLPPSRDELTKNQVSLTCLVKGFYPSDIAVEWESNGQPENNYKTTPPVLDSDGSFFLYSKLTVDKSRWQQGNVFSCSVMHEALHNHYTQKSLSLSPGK
light: DIVMTQSHKFMSTSVGDRVSITCKASQDVRTGVAWYQQKPGQSPKLLIYSASYRNTGVPDRFTGSRSGTDFTFTISSVQAEDLAVYYCQQHYSPPYTFGGGTKLEIKRTVAAPSVFIFPPSDEQLKSGTASVVCLLNNFYPREAKVQWKVDNALQSGNSQESVTEQDSKDSTYSLSSTLTLSKADYEKHKVYACEVTHQGLSSPVTKSFNRGEC
notes: Chimeric; also called chimeric Y1238 CTza
binding result [3]: binds
Kd [4]: 2.3 nM
koff [4]: 0.00023 s⁻¹
kon [4]: 100000 M⁻¹ s⁻¹

B3: chimeric Y1238 supernatant (Sup 56; HC-Chim / LC-Chim) (antibody)
VH: QVQLQQSGAELVRPGTSVKVSCKASGYAFTNYLIEWVKQRPGQGLEWIGVINPGSGGTNYNEKFKGKATLTADKSSSTAYMQLSSLTSDDSAVYFCARSQLGRRFDYWGQGTTLTVSS
light: B2 light
notes: Tested as expression supernatant
Kd [1]: 5.6 nM
koff [1]: 0.00032 s⁻¹
kon [1]: 57000 M⁻¹ s⁻¹
Kd [2]: 2.6 nM
koff [2]: 0.00022 s⁻¹
kon [2]: 86000 M⁻¹ s⁻¹

B4: purified Y1238-chimeric IgG1 antibody (antibody)
VH: B3 VH
light: B2 light
notes: Called IgG1; also called Y1238-IgG1; chimeric, purified
Kd [1]: 6.7 nM and 6.9 nM and 8.6 nM
koff [1]: 0.00038 s⁻¹ and 0.0004 s⁻¹ and 0.0005 s⁻¹
kon [1]: 56000 M⁻¹ s⁻¹ and 59000 M⁻¹ s⁻¹ and 58000 M⁻¹ s⁻¹
Kd [2]: 3.2 nM
koff [2]: 0.00027 s⁻¹
kon [2]: 83000 M⁻¹ s⁻¹

B5: BI-mAb-B (antibody, human IgG1, kappa, L234A L235A, V domains shown)
VH: EVQLVESGGGLVKPGGSLRLSCAASGFTFSDYGMHWVRQAPGKGLEWVAYISSGNRIIYYADTVKGRFTISRDNAKNSLYLQMNSLRAEDTAVYYCARQDGYRYAMDYWGQGTLVTVSS
VL: DIVMTQSPDSLAVSLGEKVTINCKSSQSLLNSGNQKNYLTWHQQKPGQPPKLLIYWTSTRESGVPDRFSGSGSGTDFTLTISSLQAEDVAVYYCQNDYTYPLTFGGGTKVEIKR
notes: Comparator anti-CD40 antibody; also called Antibody B (U.S. Pat. No. 9,090,696)
IC50 for inhibition of proliferation of B cells, CD40L Trimer [5]: 7.4 ng/mL
Kd [6]: 35 nM
koff [6]: 0.0021 s⁻¹
kon [6]: 61000 M⁻¹ s⁻¹

B6: 5F11-45-CTza (antibody, human IgG1, kappa)
heavy: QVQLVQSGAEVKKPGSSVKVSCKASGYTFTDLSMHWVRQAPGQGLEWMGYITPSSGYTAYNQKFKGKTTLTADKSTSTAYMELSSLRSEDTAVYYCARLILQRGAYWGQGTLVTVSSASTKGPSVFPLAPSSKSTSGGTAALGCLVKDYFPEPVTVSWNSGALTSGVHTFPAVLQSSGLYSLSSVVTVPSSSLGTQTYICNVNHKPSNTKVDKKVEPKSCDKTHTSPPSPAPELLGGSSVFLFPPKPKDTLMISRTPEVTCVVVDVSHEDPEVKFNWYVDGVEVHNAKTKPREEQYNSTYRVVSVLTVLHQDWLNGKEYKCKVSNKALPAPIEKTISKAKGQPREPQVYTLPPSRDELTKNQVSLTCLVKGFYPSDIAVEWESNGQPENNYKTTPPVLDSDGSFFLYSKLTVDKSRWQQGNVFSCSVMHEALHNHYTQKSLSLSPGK
light: DIVLTQSPDSLAVSLGERATINCRASKNVDSYGNSFMHWYQQKPGQPPKLLIYRASNLESGVPDRFSGSGSGTDFTLTISSLQAEDVAVYYCQQSNEDPLTFGQGTKLEIKRTVAAPSVFIFPPSDEQLKSGTASVVCLLNNFYPREAKVQWKVDNALQSGNSQESVTEQDSKDSTYSLSSTLTLSKADYEKHKVYACEVTHQGLSSPVTKSFNRGEC
binding result [7]: binds
Kd [8]: 1.6 nM
koff [8]: 0.00014 s⁻¹
kon [8]: 88000 M⁻¹ s⁻¹

B7: 5F11-45-P238K (antibody, human IgG1, kappa)
heavy: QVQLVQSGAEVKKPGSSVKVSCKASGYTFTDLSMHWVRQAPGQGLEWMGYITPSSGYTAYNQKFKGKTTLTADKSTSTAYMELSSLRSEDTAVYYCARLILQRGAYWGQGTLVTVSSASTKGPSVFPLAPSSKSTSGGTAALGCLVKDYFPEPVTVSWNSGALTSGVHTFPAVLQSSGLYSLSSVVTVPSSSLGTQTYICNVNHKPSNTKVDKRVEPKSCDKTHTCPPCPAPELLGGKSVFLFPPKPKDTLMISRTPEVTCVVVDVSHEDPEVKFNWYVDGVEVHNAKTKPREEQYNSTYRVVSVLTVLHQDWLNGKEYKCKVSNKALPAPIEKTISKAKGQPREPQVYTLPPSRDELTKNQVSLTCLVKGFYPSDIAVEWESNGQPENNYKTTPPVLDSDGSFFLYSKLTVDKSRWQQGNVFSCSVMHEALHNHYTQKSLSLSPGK
light: B6 light
binding result [7]: binds
IC50 for inhibition of proliferation of B cells, CD40L Trimer [5]: 10 ng/mL
Kd [8]: 3.3 nM
koff [8]: 0.00027 s⁻¹
kon [8]: 79000 M⁻¹ s⁻¹

B8: 5F11-45-V11 (antibody, human IgG1, kappa)
heavy: QVQLVQSGAEVKKPGSSVKVSCKASGYTFTDLSMHWVRQAPGQGLEWMGYITPSSGYTAYNQKFKGKTTLTADKSTSTAYMELSSLRSEDTAVYYCARLILQRGAYWGQGTLVTVSSASTKGPSVFPLAPSSKSTSGGTAALGCLVKDYFPEPVTVSWNSGALTSGVHTFPAVLQSSGLYSLSSVVTVPSSSLGTQTYICNVNHKPSNTKVDKRVEPKSCDKTHTCPPCPAPELLGDDSVFLFPPKPKDTLMISRTPEVTCVVVDVSDEDGEVKFNWYVDGVEVHNAKTKPREEQYNSTYRVVSVLTVLHQDWLNGKEYKCKVSNKALPRPIEKTISKAKGQPREPQVYTLPPSREEMTKNQVSLTCLVKGFYPSDIAVEWESNGQPENNYKTTPPVLDSDGSFFLYSKLTVDKSRWQQGNVFSCSVMHEALHNHYTQKSLSLSPGK
light: B6 light
notes: Control with enhanced selectivity for hCD32b
binding result [9]: binds
Kd [8]: 3.9 nM
koff [8]: 0.0003 s⁻¹
kon [8]: 79000 M⁻¹ s⁻¹

B9: 5F11-45-N297A (antibody, human IgG1, kappa, N297A)
heavy: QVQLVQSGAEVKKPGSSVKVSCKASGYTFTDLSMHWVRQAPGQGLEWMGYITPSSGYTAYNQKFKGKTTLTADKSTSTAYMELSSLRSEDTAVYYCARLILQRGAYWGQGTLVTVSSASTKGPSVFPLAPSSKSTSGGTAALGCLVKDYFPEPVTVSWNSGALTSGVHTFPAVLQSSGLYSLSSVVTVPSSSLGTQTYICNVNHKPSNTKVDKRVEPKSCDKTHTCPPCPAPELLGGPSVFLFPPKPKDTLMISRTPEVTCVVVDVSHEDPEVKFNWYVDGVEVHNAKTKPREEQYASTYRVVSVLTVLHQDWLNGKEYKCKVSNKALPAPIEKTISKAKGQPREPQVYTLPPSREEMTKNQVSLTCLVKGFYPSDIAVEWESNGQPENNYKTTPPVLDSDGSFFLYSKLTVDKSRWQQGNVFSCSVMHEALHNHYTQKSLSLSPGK
light: B6 light
binding result [7]: binds
Kd [8]: 2.8 nM
koff [8]: 0.00022 s⁻¹
kon [8]: 80000 M⁻¹ s⁻¹

B10: Y1238-hz2-N297A (antibody, human IgG1, kappa, N297A)
heavy: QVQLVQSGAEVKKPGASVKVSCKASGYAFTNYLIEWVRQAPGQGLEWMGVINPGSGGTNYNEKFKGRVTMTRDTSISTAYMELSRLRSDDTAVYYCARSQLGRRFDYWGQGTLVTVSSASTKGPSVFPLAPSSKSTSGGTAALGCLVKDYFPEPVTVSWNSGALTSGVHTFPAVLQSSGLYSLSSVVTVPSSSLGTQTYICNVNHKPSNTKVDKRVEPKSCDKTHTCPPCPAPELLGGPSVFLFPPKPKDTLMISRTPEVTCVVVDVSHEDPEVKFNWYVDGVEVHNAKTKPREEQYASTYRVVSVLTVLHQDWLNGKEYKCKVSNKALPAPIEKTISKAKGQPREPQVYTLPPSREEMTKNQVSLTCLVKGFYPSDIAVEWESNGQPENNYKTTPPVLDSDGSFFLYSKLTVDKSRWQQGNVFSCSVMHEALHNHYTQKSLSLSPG
light: DIQMTQSPSSLSASVGDRVTITCKASQDVRTGVAWYQQKPGKAPKLLIYSASYRNTGVPSRFSGSRSGTDFTFTISSLQPEDIATYYCQQHYSPPYTFGGGTKVEIKRTVAAPSVFIFPPSDEQLKSGTASVVCLLNNFYPREAKVQWKVDNALQSGNSQESVTEQDSKDSTYSLSSTLTLSKADYEKHKVYACEVTHQGLSSPVTKSFNRGEC
notes: Humanized Y1238
IC50 for inhibition of proliferation of B cells, CD40L Trimer [5]: 2.9 ng/mL
IC50 for inhibition of proliferation of B cells, CHO CD40L [5]: 20 ng/mL
Kd [6]: 6 nM
koff [6]: 0.0004 s⁻¹
kon [6]: 66000 M⁻¹ s⁻¹

B11: Y1238-hz2-P238K (antibody, human IgG1, kappa)
heavy: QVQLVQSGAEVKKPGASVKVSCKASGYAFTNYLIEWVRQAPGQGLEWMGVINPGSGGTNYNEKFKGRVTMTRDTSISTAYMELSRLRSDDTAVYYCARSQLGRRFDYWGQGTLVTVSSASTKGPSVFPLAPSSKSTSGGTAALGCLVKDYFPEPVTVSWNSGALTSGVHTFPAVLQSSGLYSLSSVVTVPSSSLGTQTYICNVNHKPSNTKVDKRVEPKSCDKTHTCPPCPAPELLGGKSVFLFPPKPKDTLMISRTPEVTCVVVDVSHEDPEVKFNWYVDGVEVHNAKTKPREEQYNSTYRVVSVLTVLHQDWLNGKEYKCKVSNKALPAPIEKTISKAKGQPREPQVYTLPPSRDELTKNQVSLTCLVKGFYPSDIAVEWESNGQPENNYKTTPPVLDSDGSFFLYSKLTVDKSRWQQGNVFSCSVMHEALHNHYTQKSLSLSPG
light: B10 light
notes: Humanized Y1238
IC50 for inhibition of proliferation of B cells, CD40L Trimer [5]: 2.7 ng/mL
IC50 for inhibition of proliferation of B cells, CHO CD40L [5]: 21 ng/mL
Kd [6]: 6.2 nM
koff [6]: 0.00043 s⁻¹
kon [6]: 70000 M⁻¹ s⁻¹
